Measurements published in US20050281914.
Like-named read-outs stand apart in the source and are kept apart here.

B1: Lactobacillus helveticus CNRZ32 endopeptidase PepE2 (protein)
chain: MKHELTMAEIAKFQQEYKKEPQNRVAELAVVNNGVQKASFNTEGIRKLNRTFSIEIPTDNVTDQKQSGRCWLFAALNTLRHGFAKKYNTKNFTFSQNYLFFWDRVERANIFFDNILNTADKPLGDRTVHTYMQGPDADGGQWAMAVSLIRKYGLVPTYAQEESFTANNTAAFNRALNMKLREDGLILRKLAKENKTDEIETKRQEFLSEVYRMAVIAFGEPVQKFDLEFKDDDGKYHFDGDLTPLDFFHNYFTDDLDDYIVLFNAPDHEFDKLYALPFEDNVEGGTPVQFLNTEIDNLKEAAIKQLEAGETIWFGCDVGKDSDRQKGILSKGLYQTDTIFNIETKLSKKERLQTGASGSTHAMTLVGVDVVDGKPRQWKIENSWGAKVGEKGYFVMDDDWFNEYLFKVVVKKQYVPDKLVKIWEGEATPVEAWDSMA
B2: Lactobacillus helveticus CNRZ32 PepE expressed as PpepO3:pepE translational fusion in Lactococcus lactis LM0230 (pSUW666) (enzyme, UniProt P94870 1-438, looked up)
Aminopeptidase E: MAHELTVQELEKFSADFNKNPKNKVVARAAQRSGVLEASYNDRVQSELTRVFSTELDTDNVTNQKHSGRCWLFATLNVLRHEFGKKYKAKDFTFSQAYNFFWDKIERANMFYNRILDSADMPLDSRQVKTDLDFAGTDGGQFQMAAALVEKYGVVPSYAMPETFNTNDTTGFATALGDKLKKDALVLRKLKQEGKDDEIKKTREKFLSEVYQMTAIAVGEPPKKFDLEYRDDDKKYHLEKDLTPLEFLHKYLGGVDFDDYVVLTNAPDHEYDKLYGLPAEDNVSGSIRIKLLNVPMEYLTAASIAQLKDGEAVWFGNDVLRQMDRKTGYLDTNLYKLDDLFGVDLKMSKADRLKTGVGEVSHAMTLVGVDEDNGEVRQWKVENSWGDKSGAKGYYVMNNEWFNDYVYEVVVHKKYLTDKQKELAEGPITDLPAWDSLA
modifications: PpepO3 fusion junction residues; expressed in Lactococcus
B3: Lactobacillus helveticus CNRZ32 endopeptidase PepO3 (protein)
chain: MTVRGGAGDITEADLSARPQDNLYLAVNSEWLKNAKIPSDRSRTSSFDGIDLNIEKELMQDFADFADGKKDLPDVPNFEKAVALYKIAKDFDRRNADGADPIQADLHEILGLRNFADFTLKAADFFKNGFPMPFDFSVEADMKNTKIHSLQFGGPGTFLPDTTTYKTPAAEKLLAVLKEQSINLLTMSGISKSEAEDYAEKALAYDAKIAKVVKSAEEWADYPATYNPISRDDFADKFKSFKMDYFLGELFAKKPERVINTEPRYLDYAEELLNEDVFAEIKAWMLVKFVNGVASSLSQEFREAAFPFSQALSGQPELPSGVKQAYHIANSDFSEVVGVYYGQTYFGAEAKADVTDMIHKMLDVYEKRIRENSWLSQATKDKAIVKLRALILKIGYPDKIEEIYDRLTVDPEASLYANEAQFGREQIKYNLEKLDQDVDRSVWLMPGNLVNACYDPQRNDLTFPAAILQKPFYDLKQSRSLNYGGIGVVIAHEISHAFDNNGAQFDEFGNMKNWWTEKDFAEFKKRTQAEIDLFDGIKYGPVTLNGKQIVSENIADQGGLTAAVEANKGEDGNMKELFENFARVWATKQLPESIKTQVSVDVHAPGPERANVQSQCQEEFYKAFDVTEHDGMWLDPEKRVVIW
B4: Lactobacillus helveticus CNRZ32 endopeptidase PepF (protein)
chain: MAIPTRSEVPEDLKWDLTRIFKTDQDWENAFDKAKDDVAKLSELKGSLAKSGKDLYEGLTKILAVKRDVENIYVYATMSSDVDTSNSHYLGYVSRVQSLSNQFEATTSFINPEILSIPAEKFEQFKKDEPRLADYAHYLEMITNKRPHTLPAEEEKIIADAGDAMSVSENTFNVLTNSDMEYGYVQDEDGNMEQLSNGLYSLLIQSQNRDVRKGAFNTLYASYGQFQNSLASTLSGVVKKHNYNARMHKYDSAREAALADNGVPVEVYDTLIKEVDSHLDLLHRYVALRKKILGLKDLQMWDMYVPLTGKPALSYNFEEAKKVAKEAMKPLGEDYLKHVDYIFNNRVIDPVESKGKVTGAYSGGAYDTDPYELLNWEDNIDSLYTLVHETGHSVHSWYTRHSQPYIYGNYPIFVAEIASTTNENILTEYFLDHITDPKTRAFILNHYLDSFKGTLFRQTQFAVFEQFIHEADAKGEPLTADILDDVYGQINQHYYGDSVEPGGDIALEWSRIPHFYYNFYVYQYATGFAAATALANKVVHGSQADRDAYLGYLKSGSSDYPTEIMKRAGVDMTKPDYLKDAFKTFEKRLNEFESLIGK
B5: Lactobacillus helveticus CNRZ32 endopeptidase PepO2 (protein)
chain: MNLAKIRGGAGDITKPDLNARIQDNLYLAVNSDWISKAKIPADRPLISSFSEIDLKIEKELMNDLADFASGKKALPDIPNFDKAIEVYKLAKDFAKRDADGFQPAQADLETLINLKDVDDVKQNLAKLLLRFSFPFLFEVEPDRKNTKTNSLSFDRNSLILPDTTSYQSPSAKQLLDVWQKQTENLLKMAGVEEAAAKKYATDAIALDAKIVKVAKSAEERADDVALYNPIKTNEFEEKTSSLNLGQLLEQLFEKKPNYVVVSEPKFLDHFNELFNQESFDELKGWLISIFINKAAAFLSEEFRQAAFPFKQATYGQKELPSQEKEAYYKANNLFDDVIGVYYGRTYFGEDAKADVEDMIHRMIDVYEQRITNNEWLSPATKEKAITKLRALVLKIGYPNKIDHVYDLFQVTPANEGGNLYSNQANIREVSLKHNFDKLYKPVDRSEWYMPGNLINACYDPQRNDITFPAAILEAPFYDINASRATNYGGIGVVIAHEISHAFDNNGAKYDEFGNMKNWWTKEDFAEFEKRTQAEIDLFDGIKYGPVTLNGKQIVSENIADQGGLTAGIEANKNEHGDMKELFENYARIWASKESPEIIKTIAAFDVHAPGPVRVNVQVQCQPEFYKAFNVQEGDGMWLDPAKRVVI
B6: Lactobacillus helveticus CNRZ32 PepO2 expressed as PpepO3:pepO2 translational fusion in Lactococcus lactis LM0230 (pSUW665) (enzyme)
chain: B5 chain
modifications: PpepO3 start and BamHI junction residues

What was measured:
αS1-casein (f1-9) [1] = molecular target: T1, αS1-casein (f1-9)
T1 chain: RPKHPIKHQ

β-casein (f193-209) [2] = molecular target: T2, β-casein (f193-209)
T2 chain: YQEPVLGPVRGPFPIIV

αS1-casein (f1-9) [3] = tested on: T3, αS1-casein (f1-9); remark: listed apart in the source
T3 sequence: RPKHPIKHQ

β-casein (f193-209) [4] = tested on: T4, β-casein (f193-209); remark: listed apart in the source
T4 sequence: YQEPVLGPVRGPFPIIV

Protein | Specific activity (Lc. lactis CFE), Cheddar cheese serum (αS1-casein (f1-9) [3]) | Specific activity (Lc. lactis CFE), defined peptide mix (αS1-casein (f1-9) [3]) | Specific activity (Lc. lactis CFE), individual peptide reaction (αS1-casein (f1-9) [3]) | relative activity in the defined peptide mix (αS1-casein (f1-9) [3]) | Specific activity (E. coli CFE) (nmoles substrate hydrolyzed/h/mg protein) (αS1-casein (f1-9) [1]) | Specific activity (E. coli CFE, control subtracted) (nmoles substrate hydrolyzed/h/mg protein) (αS1-casein (f1-9) [1]) | Specific activity (E. coli CFE) (nmoles substrate hydrolyzed/h/mg protein) (β-casein (f193-209) [2]) | Specific activity (E. coli CFE, control subtracted) (nmoles substrate hydrolyzed/h/mg protein) (β-casein (f193-209) [2]) | further results
B1 |  |  |  |  |  |  |  |  | hydrolysis under simulated cheese ripening conditions (αS1-casein (f1-9) [1]): No hydrolysis of either peptide was detected after incubation with CFE from E. coli transformed with pepE2; hydrolysis under simulated cheese ripening conditions (β-casein (f193-209) [2]): No hydrolysis of either peptide was detected after incubation with CFE from E. coli transformed with pepE2
B2 | 31 (17)^c, C | 120 (7)^a, B | 190 (14)^a, A | PepE had highest activity towards αS1-CN (f1-9) and αS1-CN (f1-6) |  |  |  |  | 
B3 |  |  |  |  | 79 | 85 | 88 | 88 | Specific activity (Lc. lactis CFE), Cheddar cheese serum (αS1-casein (f1-9) [1]): 63 (25)^b, A; Specific activity (Lc. lactis CFE), defined peptide mix (αS1-casein (f1-9) [1]): 38 (9.0)^c, A; Specific activity (Lc. lactis CFE), individual peptide reaction (αS1-casein (f1-9) [1]): 41 (19)^b, A; Specific activity (Lc. lactis CFE), Cheddar cheese serum (β-casein (f193-209) [2]): 61 (23)^b, A; Specific activity (Lc. lactis CFE), defined peptide mix (β-casein (f193-209) [2]): 40 (6.0)^a, B; Specific activity (Lc. lactis CFE), single peptide reaction (β-casein (f193-209) [2]): 81 (7.0)^a, A; hydrolysis in spiked Cheddar cheese serum (RP-HPLC) (β-casein (f193-209) [2]): hydrolyzed completely within 12 hours
B4 |  |  |  |  |  |  | 14 | 14 | Specific activity (E. coli CFE) (αS1-casein (f1-9) [1]): -
B5 |  |  |  |  | 1900 | 3700 | 290 | 290 | hydrolysis detected by RP-HPLC (pH 6.5, 37° C.) (αS1-casein (f1-9) [1]): significant hydrolysis of both β-CN(f193-209) and αs1-CN(f1-9) was detected with CFEs from E. coli DH5α (pSUW99); hydrolysis detected by RP-HPLC (pH 6.5, 37° C.) (β-casein (f193-209) [2]): significant hydrolysis of both β-CN(f193-209) and αs1-CN(f1-9) was detected with CFEs from E. coli DH5α (pSUW99)
B6 | 150 (40)^a, B | 84 (20)^b, C | 240 (10)^a, A | PepO2 had highest activity towards peptides αS1-CN (f1-9), and αS1-CN (f1-13) |  |  |  |  | Specific activity (Lc. lactis CFE), Cheddar cheese serum (β-casein (f193-209) [4]): 120 (32)^a, A; Specific activity (Lc. lactis CFE), defined peptide mix (β-casein (f193-209) [4]): 42 (10)^a, B; Specific activity (Lc. lactis CFE), single peptide reaction (β-casein (f193-209) [4]): 64 (1.5)^a, B; hydrolysis in spiked Cheddar cheese serum (RP-HPLC) (β-casein (f193-209) [4]): hydrolyzed completely within 12 hours
